For test [1], the target named is DO11.10 TCR (endogenous T cell receptor of the DO11.10 T cell hybridoma). Briefly: cell-based or functional assay.
The target in test [2] is DO11.10 scTCR/murine CD3ζ fusion molecule (membrane-bound, on transfected cells) (mouse) (UniProt P24161). Put plainly: cell-based or functional assay.
In test [3] the target is DO11.10 TCR (endogenous T cell receptor of the DO11.10 T cell hybridoma). Put plainly: cell-based or functional assay. The source holds these as a separate data set.
Test [4] addresses DO11.10 scTCR/murine IgG2b fusion molecule (mouse) (UniProt P01867). Put plainly: sandwich ELISA on supernatant of COS-7 cells co-transfected with both fusions; goat anti-murine kappa capture, anti-murine IgG2b-HRP detection, A450. Background: An ELISA detects its analyte on a solid surface through an enzyme-linked reagent.
UniProt P01867, sequence (P01867 other isoform, or with tags, fused parts or gaps): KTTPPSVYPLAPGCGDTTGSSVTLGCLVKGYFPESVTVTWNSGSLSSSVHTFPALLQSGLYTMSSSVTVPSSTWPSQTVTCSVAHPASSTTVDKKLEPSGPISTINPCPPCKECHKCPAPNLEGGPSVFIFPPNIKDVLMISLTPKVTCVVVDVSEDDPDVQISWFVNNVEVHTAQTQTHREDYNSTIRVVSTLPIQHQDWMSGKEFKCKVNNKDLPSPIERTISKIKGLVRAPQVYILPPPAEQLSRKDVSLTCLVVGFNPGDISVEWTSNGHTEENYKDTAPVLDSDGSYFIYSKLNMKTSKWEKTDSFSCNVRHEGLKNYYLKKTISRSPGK
Test [5] has as its target DO11.10 TCR (endogenous T cell receptor of the DO11.10 T cell hybridoma). Put plainly: cell-based or functional assay. The source holds these as a separate data set.
In test [6] the target is DO11.10 scTCR/murine CD3ζ fusion molecule (membrane-bound, on transfected cells) (mouse) (UniProt P24161). Put plainly: cell-based or functional assay. This is another data set of the same source.

Read-outs that look alike come from different tables or passages of the source.

UniProt P24161, sequence (P24161 whole entry, the tested form may be a part): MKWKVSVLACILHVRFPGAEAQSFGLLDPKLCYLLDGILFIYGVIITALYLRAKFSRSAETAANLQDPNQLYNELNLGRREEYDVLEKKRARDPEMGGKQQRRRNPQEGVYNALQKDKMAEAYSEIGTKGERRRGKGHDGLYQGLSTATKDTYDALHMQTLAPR

Turning to “monovalent scIA^d/OVA-BirA complexes (monomer, no avidin) (peptide-MHC)”, in test [1], the IL-2 ELISA value; DO11.10 cells; 31 ng complex/well is 0.242 A450, the IL-2 ELISA value; DO11.10 cells; 62 ng complex/well stood at 0.398 A450, the IL-2 ELISA value; DO11.10 cells; 125 ng complex/well was 0.513 A450 and the IL-2 ELISA value; DO11.10 cells; 500 ng complex/well is 1.05 A450. In addition, in test [1], the IL-2 ELISA value; DO11.10 cells; 1000 ng complex/well was found to be 1.16 A450.
In test [1], “scIA^d/OVA-IgM fusion (scIA^d/OVA fused to CH2-CH3-CH4 of human IgM heavy chain), multi-valent (from UniProt P01871 106-453) (peptide-MHC)” gave an IL-2 ELISA value; DO11.10 T cells; 0.3 ng complex/well of 0.192 A405, an IL-2 ELISA value; DO11.10 T cells; 1 ng complex/well of 0.195 A405, an IL-2 ELISA value; DO11.10 T cells; 4 ng complex/well of 0.23 A405 and an IL-2 ELISA value; DO11.10 T cells; 11 ng complex/well of 0.601 A405. For the same molecule, in test [1], the IL-2 ELISA value; DO11.10 T cells; 33 ng complex/well was 1.64 A405, the IL-2 ELISA value; DO11.10 T cells; 100 ng complex/well came out at 1.7 A405 and the IL-2 ELISA value; DO11.10 T cells; 300 ng complex/well was determined as 0.853 A405. For the same molecule, in test [2], the IL-2 ELISA value; BWDZ:CD4+ transfectants; 40 ng complex/well stood at 0.305 A405, the IL-2 ELISA value; BWDZ:CD4+ transfectants; 200 ng complex/well is 0.34 A405, the IL-2 ELISA value; BWDZ:CD4+ transfectants; 1000 ng complex/well was found to be 1.28 A405 and the IL-2 ELISA value; DO11.10 scTCR 2B4 transfectants; 1 ng complex/well turned out to be 0.214 A405. In test [2], this molecule registered an IL-2 ELISA value; DO11.10 scTCR 2B4 transfectants; 3 ng complex/well of 0.234 A405, an IL-2 ELISA value; DO11.10 scTCR 2B4 transfectants; 7 ng complex/well of 0.264 A405, an IL-2 ELISA value; DO11.10 scTCR 2B4 transfectants; 15 ng complex/well of 0.273 A405 and an IL-2 ELISA value; DO11.10 scTCR 2B4 transfectants; 31 ng complex/well of 1.32 A405. In test [2], the IL-2 ELISA value; DO11.10 scTCR 2B4 transfectants; 62 ng complex/well is 1.82 A405, the IL-2 ELISA value; DO11.10 scTCR 2B4 transfectants; 125 ng complex/well is 2.33 A405 and the IL-2 ELISA value; DO11.10 scTCR 2B4 transfectants; 250 ng complex/well came to 2.27 A405. In test [3], this molecule gave an IL-2 ELISA value; DO11.10 T cells; 1 ng complex/well of 0.268 A405, an IL-2 ELISA value; DO11.10 T cells; 3 ng complex/well of 0.529 A405, an IL-2 ELISA value; DO11.10 T cells; 7 ng complex/well of 0.838 A405 and an IL-2 ELISA value; DO11.10 T cells; 15 ng complex/well of 1.18 A405. Besides, in test [3], the IL-2 ELISA value; DO11.10 T cells; 31 ng complex/well is 1.42 A405, the IL-2 ELISA value; DO11.10 T cells; 62 ng complex/well worked out at 1.33 A405, the IL-2 ELISA value; DO11.10 T cells; 125 ng complex/well was 1.61 A405 and the IL-2 ELISA value; DO11.10 T cells; 250 ng complex/well came to 1.48 A405.
As for “single-chain IA^d linked to OVA 323-339 (scIA^d/OVA), monovalent (peptide-MHC)”, in test [1], the IL-2 ELISA value; DO11.10 T cells; 12.5 ng complex/well was 0.176 A405, the IL-2 ELISA value; DO11.10 T cells; 25 ng complex/well was 0.209 A405, the IL-2 ELISA value; DO11.10 T cells; 50 ng complex/well is 1.19 A405 and the IL-2 ELISA value; DO11.10 T cells; 100 ng complex/well turned out to be 3.06 A405. For the same molecule, the mean IL-2 absorbance reading of eight DMSO control wells (assay plate 5-2); DO11.10 T cells on 50 ng/well scIA^d/OVA in test [1] amounted to 2.2 A450. Further, in test [2], the IL-2 ELISA value; DO11.10 scTCR 2B4 transfectants; 7 ng complex/well was 0.236 A405, the IL-2 ELISA value; DO11.10 scTCR 2B4 transfectants; 15 ng complex/well was 0.397 A405, the IL-2 ELISA value; DO11.10 scTCR 2B4 transfectants; 31 ng complex/well came to 0.646 A405 and the IL-2 ELISA value; DO11.10 scTCR 2B4 transfectants; 62 ng complex/well came to 1.03 A405. Further, in test [2], the IL-2 ELISA value; DO11.10 scTCR 2B4 transfectants; 125 ng complex/well was 1.06 A405 and the IL-2 ELISA value; DO11.10 scTCR 2B4 transfectants; 250 ng complex/well was 1.06 A405. Moreover, in test [3], the IL-2 ELISA value; DO11.10 T cells; 7 ng complex/well came out at 0.236 A405, the IL-2 ELISA value; DO11.10 T cells; 15 ng complex/well amounted to 0.397 A405, the IL-2 ELISA value; DO11.10 T cells; 31 ng complex/well is 0.646 A405 and the IL-2 ELISA value; DO11.10 T cells; 62 ng complex/well came to 1.03 A405. Besides, in test [3], the IL-2 ELISA value; DO11.10 T cells; 125 ng complex/well came to 1.06 A405 and the IL-2 ELISA value; DO11.10 T cells; 250 ng complex/well worked out at 0.665 A405.
Consider “scIA^d/GD-IgG multimer (scIA^d/GD-Cκ fusion with scIA^d/GD-IgG2b heavy chain fusion) (peptide-MHC)”, for which, in test [1], the IL-2 ELISA value; DO11.10 T cells; 12.5 ng complex/well is 0.159 A405, the IL-2 ELISA value; DO11.10 T cells; 25 ng complex/well was 0.166 A405, the IL-2 ELISA value; DO11.10 T cells; 50 ng complex/well came to 0.155 A405 and the IL-2 ELISA value; DO11.10 T cells; 100 ng complex/well is 0.166 A405.
For the molecule “DO11.10 scTCR/murine kappa fusion molecule”, the absorbance relative to the negative control (fold) in test [4] was found to be 40 fold.

B1: IA^d/OVA complex on OVA peptide-pulsed A20 antigen presenting cells (peptide-MHC, mouse)
MHC II alpha: EDDIEADHVGFYGTTVYQSPGDIGQYTHEFDGDELFYVDLDKKKTVWRLPEFGQLILFEPQGGLQNIAAEKHNLGILTKRSNFTPATNEAPQATVFPKSPVLLGQPNTLICFVDNIFPPVINITWLRNSKSVTDGVYETSFLVNRDHSFHKLSYLTFIPSDDDIYDCKVEHWGLEEPVLKHWEPEIPAPMSELTETVVCALGLSVGLVGIVVGTIFIIQGLRSGGTSRHPGPL
MHC II beta: GNSERHFVVQFKGECYYTNGTQRIRLVTRYIYNREEYVRYDSDVGEYRAVTELGRPDAEYWNSQPEILERTRAEVDTACRHNYEGPETSTSLRRLEQPNVAISLSRTEALNHHNTLVCSVTDFYPAKIKVRWFRNGQEETVGVSSTQLIRNGDWTFQVLVMLEMTPHQGEVYTCHVEHPSLKSPITVEWRAQSESARSKMLSGIGGCVLGVIFLGLGLFIRHRSQKGPRGPPPAGLLQ
peptide: ISQAVHAAHAEINEAGR
In test [5], B1 displayed an IL-2 ELISA value; DO11.10 T cells with OVA peptide-loaded A20 cells; 0 µM compound 12G9 of 1.91 A405, an IL-2 ELISA value; DO11.10 T cells with OVA peptide-loaded A20 cells; 0 µM compound 211-C3 of 2.02 A405, an IL-2 ELISA value; DO11.10 T cells with OVA peptide-loaded A20 cells; 0 µM compound 211-C9 of 2.02 A405 and an IL-2 ELISA value; DO11.10 T cells with OVA peptide-loaded A20 cells; 0 µM compound 211B9 of 1.92 A405. In test [6], this molecule registered an IL-2 production of BW/DZ cells with full-length CD4 (BWDZ:CD4+) relative to DO11.10 cells; OVA peptide-mixed A20 APCs of 75 to 80% and an IL-2 production of BW/DZ cells with truncated CD4 lacking the cytoplasmic domain (BWDZ:deltaCM) relative to DO11.10 cells; OVA peptide-mixed A20 APCs of 10%.

Values taken from patent US20040253632A1.
